# Like-named read-outs stand apart in the source and are kept apart here.
# Assays:
# [1] = target: the antigen (SARS-CoV-2 spike (S) protein, form not stated in Example 13) (SARS-CoV-2) (UniProt P0DTC2); experiment: SPR relative binding activity; 1:5 diluted 10 mg/mL, formulation F5, initial
# [2] = target: the antigen (SARS-CoV-2 spike (S) protein, form not stated in Example 13) (SARS-CoV-2) (UniProt P0DTC2); experiment: SPR relative binding activity; 1:5 diluted 10 mg/mL, formulation F7, nebulized
# [3] = target: the antigen (SARS-CoV-2 spike (S) protein, form not stated in Example 13) (SARS-CoV-2) (UniProt P0DTC2); experiment: SPR relative binding activity; formulation F5, nebulized with Droh
# [4] = target: the antigen (SARS-CoV-2 spike (S) protein, form not stated in Example 13) (SARS-CoV-2) (UniProt P0DTC2); experiment: SPR relative binding activity; formulation F5, nebulized with Pariboy
# [5] = target: the antigen (SARS-CoV-2 spike (S) protein, form not stated in Example 13) (SARS-CoV-2) (UniProt P0DTC2); experiment: SPR relative binding activity; undiluted 50 mg/mL, formulation F7, nebulized
# [6] = target: the antigen (SARS-CoV-2 spike (S) protein, form not stated in Example 13) (SARS-CoV-2) (UniProt P0DTC2); experiment: SPR relative binding activity; 1:5 diluted 10 mg/mL, formulation F7, initial
# [7] = target: the antigen (SARS-CoV-2 spike (S) protein, form not stated in Example 13) (SARS-CoV-2) (UniProt P0DTC2); experiment: SPR relative binding activity; undiluted 50 mg/mL, formulation F5, initial
# [8] = target: the antigen (SARS-CoV-2 spike (S) protein, form not stated in Example 13) (SARS-CoV-2) (UniProt P0DTC2); experiment: SPR relative binding activity; 1:5 diluted 10 mg/mL, formulation F8, nebulized
# [9] = target: the antigen (SARS-CoV-2 spike (S) protein, form not stated in Example 13) (SARS-CoV-2) (UniProt P0DTC2); experiment: SPR relative binding activity; formulation F5, nebulized with Aerogen Solo
# [10] = target: the antigen (SARS-CoV-2 spike (S) protein, form not stated in Example 13) (SARS-CoV-2) (UniProt P0DTC2); experiment: SPR relative binding activity; 1:5 diluted 10 mg/mL, formulation F8, initial
# [11] = target: the antigen (SARS-CoV-2 spike (S) protein, form not stated in Example 13) (SARS-CoV-2) (UniProt P0DTC2); experiment: SPR relative binding activity; undiluted 50 mg/mL, formulation F8, initial
# [12] = target: the antigen (SARS-CoV-2 spike (S) protein, form not stated in Example 13) (SARS-CoV-2) (UniProt P0DTC2); experiment: SPR relative binding activity; formulation F5, nebulized with eFlow-Rapid
# [13] = target: the antigen (SARS-CoV-2 spike (S) protein, form not stated in Example 13) (SARS-CoV-2) (UniProt P0DTC2); experiment: SPR relative binding activity; formulation F5, control unnebulized
# [14] = target: the antigen (SARS-CoV-2 spike (S) protein, form not stated in Example 13) (SARS-CoV-2) (UniProt P0DTC2); experiment: SPR relative binding activity; undiluted 50 mg/mL, formulation F7, initial
# [15] = target: the antigen (SARS-CoV-2 spike (S) protein, form not stated in Example 13) (SARS-CoV-2) (UniProt P0DTC2); experiment: SPR relative binding activity; undiluted 50 mg/mL, formulation F8, nebulized
# [16] = target: the antigen (SARS-CoV-2 spike (S) protein, form not stated in Example 13) (SARS-CoV-2) (UniProt P0DTC2); experiment: SPR relative binding activity; reference standard, initial
# [17] = target: the antigen (SARS-CoV-2 spike (S) protein, form not stated in Example 13) (SARS-CoV-2) (UniProt P0DTC2)
# [18] = target: the antigen (SARS-CoV-2 spike (S) protein, form not stated in Example 13) (SARS-CoV-2) (UniProt P0DTC2); experiment: SPR relative binding activity; undiluted 50 mg/mL, formulation F6, initial
# [19] = target: the antigen (SARS-CoV-2 spike (S) protein, form not stated in Example 13) (SARS-CoV-2) (UniProt P0DTC2); experiment: SPR relative binding activity; 1:5 diluted 10 mg/mL, formulation F6, nebulized
# [20] = target: the antigen (SARS-CoV-2 spike (S) protein, form not stated in Example 13) (SARS-CoV-2) (UniProt P0DTC2); experiment: SPR relative binding activity; undiluted 50 mg/mL, formulation F6, nebulized
# [21] = target: the antigen (SARS-CoV-2 spike (S) protein, form not stated in Example 13) (SARS-CoV-2) (UniProt P0DTC2); experiment: SPR relative binding activity; 1:5 diluted 10 mg/mL, formulation F6, initial
# [22] = target: the antigen (SARS-CoV-2 spike (S) protein, form not stated in Example 13) (SARS-CoV-2) (UniProt P0DTC2); experiment: SPR relative binding activity; 1:5 diluted 10 mg/mL, formulation F5, nebulized
# [23] = target: the antigen (SARS-CoV-2 spike (S) protein, form not stated in Example 13) (SARS-CoV-2) (UniProt P0DTC2); experiment: SPR relative binding activity; undiluted 50 mg/mL, formulation F5, nebulized
# Chain of DZIF-10c (antibody) (VH): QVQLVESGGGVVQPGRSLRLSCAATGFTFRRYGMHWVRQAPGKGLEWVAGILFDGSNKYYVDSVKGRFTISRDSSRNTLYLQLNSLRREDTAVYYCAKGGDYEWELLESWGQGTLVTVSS
# Chain of DZIF-10c (antibody) (VL): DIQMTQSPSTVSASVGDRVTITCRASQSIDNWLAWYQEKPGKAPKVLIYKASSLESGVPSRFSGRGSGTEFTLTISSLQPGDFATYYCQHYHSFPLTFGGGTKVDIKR
substance,measurement,setting,value
DZIF-10c (antibody),SPR Binding Activity (RLCA %),[1],96%
same,SPR Binding Activity (RLCA %),[2],96%
same,SPR Binding Activity (RLCA %),[3],100%
same,SPR Binding Activity (RLCA %),[4],100%
same,SPR Binding Activity (RLCA %),[5],96%
same,SPR Binding Activity (RLCA %),[6],96%
same,SPR Binding Activity (RLCA %),[7],96%
same,SPR Binding Activity (RLCA %),[8],96%
same,SPR Binding Activity (RLCA %),[9],100%
same,SPR Binding Activity (RLCA %),[10],96%
same,SPR Binding Activity (RLCA %),[11],96%
same,SPR Binding Activity (RLCA %),[12],100%
same,SPR Binding Activity (RLCA %),[13],100%
same,SPR Binding Activity (RLCA %),[14],96%
same,SPR Binding Activity (RLCA %),[15],96%
same,SPR Binding Activity (RLCA %),[16],100%
same,SPR Binding Activity (RLCA %),[17],100%
same,SPR Binding Activity (RLCA %),[18],95%
same,SPR Binding Activity (RLCA %),[19],96%
same,SPR Binding Activity (RLCA %),[20],96%
same,SPR Binding Activity (RLCA %),[21],96%
same,SPR Binding Activity (RLCA %),[22],96%
same,SPR Binding Activity (RLCA %),[23],96%

# Reference: US20210371503A1
